Laboratory results from PMC3519385 (Structure (London, England : 1993), 2012).
Where “and” joins values, the source holds several entries; their conditions need not be identical. Equal entries are not always repeated.

B1: MBP-SMN^229–294 (domain or fragment, human, UniProt Q16637 229-294, looked up)
chain: LSCWLPPFPSGPPIIPPPPPICPDSLDDADALGSMLISWYMSGYHTGYYMGFRQNQKEGRCSHSLN
B2: SMN Δexon5 (SMNΔ5) (natural protein, human, UniProt Q16637-2 1-262, looked up)
chain: MAMSSGGSGGGVPEQEDSVLFRRGTGQSDDSDIWDDTALIKAYDKAVASFKHALKNGDICETSGKPKTTPKRKPAKKNKSQKKNTAASLQQWKVGDKCSAIWSEDGCIYPATIASIDFKRETCVVVYTGYGNREEQNLSDLLSPICEVANNIEQNAQENENESQVSTDESENSRSPGNKSDNIKPKSAPWNSFLPPPPPMPGPRLGPGKIIPPPPPICPDSLDDADALGSMLISWYMSGYHTGYYMGFRQNQKEGRCSHSLN

Biological target: the molecule itself
Assay: SEC-MALS

Binder	stoichiometry N
DSLDDADALASMLISWYMSGYHTGYYMGFRQNQKEGRCSHSLN (domain or fragment, human, UniProt Q16637 252-294, looked up) [MBP-YG^252–294 G261A]	≥ 4
DSLDDADALGSMLISWYMAGYHTGYYMGFRQNQKEGRCSHSLN (domain or fragment, human, UniProt Q16637 252-294, looked up) [MBP-YG^252–294 S270A]	≥ 4
DSLDDADALGSMLISWYMSGYHTGYYMAFRQNQKEGRCSHSLN (domain or fragment, human, UniProt Q16637 252-294, looked up) [MBP-YG^252–294 G279A]	≥ 4
DSLDDADALGSMLISWYMSGYHTGYYMGFRQAQKEGRCSHSLN (domain or fragment, human, UniProt Q16637 252-294, looked up) [MBP-YG^252–294 N283A]	≥ 4

Biological target: the molecule itself
Assay: SEC-MALS
Remark: another data set of the same source

Binder	stoichiometry N
DSLDDADALGGMLISWYMSGYHTGYYMGFRQNQKEGRCSHSLN (domain or fragment, human, UniProt Q16637 252-294, looked up) [MBP-YG^252–294 S262G]	4
DSLDDADALGIMLISWYMSGYHTGYYMGFRQNQKEGRCSHSLN (domain or fragment, human, UniProt Q16637 252-294, looked up) [MBP-YG^252–294 S262I]	≥ 4
DSLDDADALGSMLISWYMSGYRTGYYMGFRQNQKEGRCSHSLN (domain or fragment, human, UniProt Q16637 252-294, looked up) [MBP-YG^252–294 H273R]	4
DSLDDADALGSMLISWYMSGYHIGYYMGFRQNQKEGRCSHSLN (domain or fragment, human, UniProt Q16637 252-294, looked up) [MBP-YG^252–294 T274I]	4
DSLDDADALGSMLISWYMSGYHTGYYMCFRQNQKEGRCSHSLN (domain or fragment, human, UniProt Q16637 252-294, looked up) [MBP-YG^252–294 G279C]	≥ 4
DSLDDADALGSMLISWYMSGYHTGYYMGFRQNQKEGRCSHSLN (domain or fragment, human, UniProt Q16637 252-294, looked up) [MBP-YG^252–294]	4

Biological target: the molecule itself
Assay: not given

Binder	stoichiometry N
MLISWYMSGYHTGYYMGFRQNQKEGRCSHSLN (domain or fragment, human, UniProt Q16637 263-294, looked up) [MBP-YG^263–294]	2
B1	4 and 8

biological target: T1, Gemin2 (UniProt O14893 1-280); assay: co-purification
T1 sequence (looked up): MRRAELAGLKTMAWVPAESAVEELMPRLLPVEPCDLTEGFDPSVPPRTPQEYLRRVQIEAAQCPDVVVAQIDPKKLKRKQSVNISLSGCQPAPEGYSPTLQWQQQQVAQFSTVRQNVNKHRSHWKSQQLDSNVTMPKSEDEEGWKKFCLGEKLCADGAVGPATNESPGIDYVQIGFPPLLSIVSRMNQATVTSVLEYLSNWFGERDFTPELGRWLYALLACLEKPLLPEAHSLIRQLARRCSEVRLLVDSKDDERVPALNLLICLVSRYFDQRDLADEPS

Binder	stoichiometry N
B2	1
